Where two headings read alike, the source gives them in different places.

The target in experiment [1] is keyhole limpet hemocyanin. Briefly: polyreactivity ELISA.
Experiment [2] has as its target keyhole limpet hemocyanin. Briefly: polyreactivity ELISA. The source holds these as a separate data set.

For the substance Bococizumab (antibody), the Binding to KLH (normalised A450) is 47.1 in experiment [1] and 24.4 in experiment [2].

(Values after patent publication US20230357343A1.)
